Measurements from publication PMC7782405 (Molecular Imaging and Biology, 2020).

Assays:
[1] = system: mice bearing U-87MG xenografts; experiment: in vivo; conditions: for reduction of uptake in U-87MG xenografts by co-injection of c(RGDfK) 7: 1 h p.i.
Method: (§1) All animal experiments complied with the current laws of the Federal Republic of Germany and were conducted according to German Animal welfare guidelines. Normal female athymic Balb/c nude mice (17–20 g, 4–6 weeks old) were obtained from Janvier SAS (St. Berthevin Cedex, France). Mice were provided with food and water ad libitum. U-87MG tumors were induced on the right shoulder by sub-cutaneous injection of 5 × 10^6 cells in a 100 μl cell suspension of a 1:1 v/v mixture of media with reconstituted basement membrane (GFR BD Matrigel™, Corning BV, Amsterdam, Holland). For each compound, a total of three animals were injected with [^64Cu]Cu-8 and [^64Cu]Cu-9 (~ 500 pmol, 7–11 MBq) in 100 μl sterile filtered phosphate-buffered saline via a tail vein. At 1 h p.i., animals were sacrificed by isoflurane anesthesia. Organs of interest were dissected, weighed, and assayed for radioactivity in a gamma counter. The percent injected activity per gram (%IA g^−1) for each tissue was calculated by comparison of the tissue counts to a standard sample prepared from the injectate.

in vivo [2] = experiment: in vivo; set-up: species or system mice; conditions: female, athymic Balb/c nude, mouse, in vivo, iv, total radioactivity
Method: as §1

[3] = system: mice bearing U-87MG xenografts; experiment: in vivo; conditions: mouse
Method: (§2) All animal experiments complied with the current laws of the Federal Republic of Germany and were conducted according to German Animal welfare guidelines. Normal female athymic Balb/c nude mice (17–20 g, 4–6 weeks old) were obtained from Janvier SAS (St. Berthevin Cedex, France). Mice were provided with food and water ad libitum. U-87MG tumors were induced on the right shoulder by sub-cutaneous injection of 5 × 10^6 cells in a 100 μl cell suspension of a 1:1 v/v mixture of media with reconstituted basement membrane (GFR BD Matrigel™, Corning BV, Amsterdam, Holland). Static and dynamic PET imaging experiments were conducted on a microPET Focus 120 scanner (Concorde Microsystems). For dynamic PET imaging studies, approximately 5 min prior to recording PET images, mice (n = 3) were anesthetized by inhalation of 2–3 % isoflurane/oxygen gas mixture, fitted with an intravenous catheter and placed on the scanner bed in the prone position. Anesthesia was maintained using 1–2 % isoflurane. For all experiments, animals were injected with 100 μl sterile filtered phosphate-buffered saline formulations pH 7.4 of [^64Cu]Cu-8 and [^64Cu]Cu-9 (~ 500 pmol, 7–11 MBq). Dynamic scans were recorded from 0 to 1 h post radiotracer administration. List-mode data were acquired using a γ-ray energy window of 350–650 keV and a coincidence timing window of 6 ns. For the 24 h p.i. time point, mice were injected 24 h prior to image acquisition and placed in the cages. Five to ten minutes prior to static PET imaging, mice were anesthetized with isoflurane (2–4 % in air) and positioned in the scanner. Animals of the PET imaging studies were included in the ex vivo biodistribution studies (vide infra). Reconstruction was performed using unweighted OSEM2D. Image analysis was performed using AMIDE. Image counts per second per voxel (cps/voxel) were calibrated to activity concentrations (Bq ml^−1) by measuring a 3.5-cm cylinder phantom filled with a known concentration of radioactivity.

in vivo [4] = experiment: in vivo; set-up: species or system mice; conditions: female, athymic Balb/c nude, mouse, iv, total radioactivity, Tumor uptake (PET)
Method: as §2

U-87MG cells = experiment: Cell internalization assay; format: cell-based, human; conditions: for specific surface-bound fraction: all time points
Method: For cell internalization, U-87MG cells were seeded at a density of 10^6 cells per well in 6-well plates and incubated overnight with medium (Dulbecco modified Eagle medium with GlutaMAX containing 10 % fetal bovine serum, 1 % 10,000 U ml^−1 penicillin and 10,000 U ml^−1 streptomycin, 1 % sodium-pyruvate 100 mM). After 24 h, the medium was removed and the cells were washed with PBS. Approximately 2.5 pmol of [^64Cu]Cu-8 and [^64Cu]Cu-9 was added to the cells (in triplicates) to give a final volume of 1.5 ml PBS in each well followed by incubation for 1 h at 37 °C, 5 % CO2. […] At each time point, the internalization was stopped by removing the medium and washing the cells twice with ice-cold PBS. To remove the receptor-bound radioligand, an acid wash was carried out twice with a 0.1 M glycine buffer pH 2.8 for 5 min on ice. Finally, cells were solubilized with 1 N NaOH. Radioactivity of cell fractions (supernatant, receptor-bound, and internalized) was measured by a Perkin Elmer gamma counter. Experiments were performed twice in triplicate.

[5] = female, athymic Balb/c nude, mouse, in vivo, iv, 1 h

Structure (SMILES)	reduction of uptake in U-87MG xenografts by co-injection of c(RGDfK) 7 [1]	Tumor-to-blood ratio [1, 5]	Tumor-to-kidney ratio ([1]; mouse, in vivo)	Tumor-to-liver ratio ([1]; mouse, in vivo)	tissue to tissue ratio at 1 h (in vivo [2]; Tumor-to-blood ratio)	tissue to tissue ratio at 1 h (in vivo [2]; Tumor-to-kidney ratio)	tissue to tissue ratio at 1 h (in vivo [2]; Tumor-to-liver ratio)	tissue to tissue ratio at 1 h (in vivo [2]; Tumor-to-muscle ratio)	liver uptake, normal vs blocking groups (PET) [3]	time to maximum tumor accumulation (TAC) [3]	tissue uptake per volume at 1 h (in vivo [4]; 5 mg/kg)	tissue uptake per volume at 1 h (in vivo [4])	receptor-mediated (αvß3-specific) internalization (U-87MG cells; 4 h)	receptor-mediated (αvß3-specific) internalization (U-87MG cells; after 30 min)	specific surface-bound fraction (U-87MG cells)	Tumor-to-liver ratio [1, 5]	fold higher tumor uptake compared with the monomer [^64Cu]Cu-8 ([1]; mouse, in vivo)	fold higher tumor uptake compared with the monomeric counterpart (PET images) [3]
Cn1ccnc1CN1CCN(CC(=O)NCCCC[C@@H]2NC(=O)[C@@H](Cc3ccccc3)NC(=O)[C@H](CC(=O)O)NC(=O)CNC(=O)[C@H](CCCNC(=N)N)NC2=O)CCN(Cc2nccn2C)CC1 [[^64Cu]Cu-8, metal not drawn]	89%	14.37	0.86	0.84	15 ± 3.05	0.86 ± 0.04	0.83 ± 0.1	10.5 ± 4.79	No significant differences	5 to 10 min	0.91 ± 0.39 %ID/mL	2.61 ± 0.65 %ID/mL	1.4 ± 0.1%	0.2 ± 0.1%	≤ 0.1%	–	–	–
N=C(N)NCCC[C@@H]1NC(=O)[C@H](CCCCNC(=O)CCCCn2ccnc2CN2CCN(Cc3nccn3CCCCC(=O)NCCCC[C@@H]3NC(=O)[C@@H](Cc4ccccc4)NC(=O)[C@H](CC(=O)O)NC(=O)CNC(=O)[C@H](CCCNC(=N)N)NC3=O)CCN(Cc3nccn3CCCCC(=O)NCCCC[C@@H]3NC(=O)[C@@H](Cc4ccccc4)NC(=O)[C@H](CC(=O)O)NC(=O)CNC(=O)[C@H](CCCNC(=N)N)NC3=O)CC2)NC(=O)[C@@H](Cc2ccccc2)NC(=O)[C@H](CC(=O)O)NC(=O)CNC1=O [[^64Cu]Cu-9, metal not drawn]	60%	–	0.73	–	–	0.73 ± 0.11	1.03 ± 0.26	14.1 ± 3.83	No significant differences	5 to 10 min	2.18 ± 0.66 %ID/mL	4.42 ± 1.1 %ID/mL	8.7 ± 0.6%	0.7 ± 0.2%	≤ 0.1%	0.99	~ 2.5 fold	~ 2 fold
